US20120220492A1

Columns and labels:
antibody against CD29 = test: cell-based or functional assay
antibody against c-kit = test: cell-based or functional assay

Substance | infectious titers on Jurkat cells (GFP positive cells by FACS) (antibody against CD29; scale: times higher than virus with a wildtype capsid) | transduction efficiency on MO7E cells (antibody against c-kit) [fold] | transduction efficiency on MO7E cells (fold higher than wildtype) (antibody against c-kit) | transgene expression (antibody against c-kit; scale: fold higher than virus with wildtype capsid) | transgene expression (antibody against c-kit; scale: times higher than virus with wildtype capsid) | infectivity on Jurkat cells (fold lower than the 25% virus) (antibody against CD29) | infectivity on MO7E cells (fold lower than the 25% virus) (antibody against c-kit)
AAV mosaic composed of 25% mutant capsid proteins with a Protein A fragment (Z34C) insertion at position 587 (from UniProt P03135 1-735; P03135 139-735; P03135 203-735; P03135 139-735; P03135 203-735) | 2 to 3 | 10 | 100 | 100 | 100000 |  | 
AAV mosaic composed of 50% mutant capsid proteins with a Protein A fragment (Z34C) insertion at position 587 (from UniProt P03135 1-735; P03135 139-735; P03135 203-735; P03135 139-735; P03135 203-735) |  |  |  |  |  | 2 | 3
